Here are results for four proteins from paper PMC6716841, “Modification of acetoacetyl-CoA reduction step in Ralstonia eutropha for biosynthesis of poly(3-hydroxybutyrate-co-3-hydroxyhexanoate) from structurally unrelated compounds” (Microbial Cell Factories, 2019).

Substrate in this data set: CC(=O)CC(=O)SCCNC(=O)CCNC(=O)[C@H](O)C(C)(C)COP(=O)(O)OP(=O)(O)OC[C@H]1O[C@@H](n2cnc3c(N)ncnc32)[C@H](O)[C@@H]1OP(=O)(O)O
The experiment in a line: purified protein. Format: biochemical, Cupriavidus necator. The following applies: 200 μM NADPH, 1 to 20 μM acetoacetyl-CoA, 100 mM Tris-HCl pH 8.0, 30 °C.

Setting [1] is: substrate inhibition above 12 μM.

B1: PhaB1 (Cupriavidus necator H16) (protein)
chain: MTQRIAYVTGGMGGIGTAICQRLAKDGFRVVAGCGPNSPRREKWLEQQKALGFDFIASEGNVADWDSTKTAFDKVKSEVGEVDVLINNAGITRDVVFRKMTRADWDAVIDTNLTSLFNVTKQVIDGMADRGWGRIVNISSVNGQKGQFGQTNYSTAKAGLHGFTMALAQEVATKGVTVNTVSPGYIATDMVKAIRQDVLDKIVATIPVKRLGLPEEIASICAWLSSEESGFSTGADFSLNGGLHMG
Usually Km stands for the substrate concentration at which the rate is half of its maximum. Broadly, the Vmax is the rate approached at saturating substrate. As a reminder, the kcat is the maximal rate divided by the concentration of active sites. A word on the kcat/Km: it is the second-order rate constant that governs catalysis at low substrate concentration. In the case of B1, under setting [1], the Km amounted to 1.99 ± 0.23 µM, the Vmax worked out at 162 µmol/min/mg, the kcat worked out at 71.2 ± 2.7 s⁻¹ and the kcat/Km turned out to be 3.58e+07 ± 4.4e+06 M⁻¹ s⁻¹.

B2: PhaB1 (Cupriavidus necator H16; N142V/Y185F) (protein)
chain: MTQRIAYVTGGMGGIGTAICQRLAKDGFRVVAGCGPNSPRREKWLEQQKALGFDFIASEGNVADWDSTKTAFDKVKSEVGEVDVLINNAGITRDVVFRKMTRADWDAVIDTNLTSLFNVTKQVIDGMADRGWGRIVNISSVVGQKGQFGQTNYSTAKAGLHGFTMALAQEVATKGVTVNTVSPGFIATDMVKAIRQDVLDKIVATIPVKRLGLPEEIASICAWLSSEESGFSTGADFSLNGGLHMG
Turning to B2, the Km was 109 ± 38 µM, the Vmax is 53.9 µmol/min/mg, the kcat stood at 23.7 ± 3.7 s⁻¹ and the kcat/Km was found to be 220000 ± 80000 M⁻¹ s⁻¹.

B3: PhaB1 (Cupriavidus necator H16; N142V) (protein)
chain: MTQRIAYVTGGMGGIGTAICQRLAKDGFRVVAGCGPNSPRREKWLEQQKALGFDFIASEGNVADWDSTKTAFDKVKSEVGEVDVLINNAGITRDVVFRKMTRADWDAVIDTNLTSLFNVTKQVIDGMADRGWGRIVNISSVVGQKGQFGQTNYSTAKAGLHGFTMALAQEVATKGVTVNTVSPGYIATDMVKAIRQDVLDKIVATIPVKRLGLPEEIASICAWLSSEESGFSTGADFSLNGGLHMG
As for B3, the Km stood at 58.5 ± 18.1 µM, the Vmax was found to be 175 µmol/min/mg, the kcat was determined as 76.7 ± 2.7 s⁻¹ and the kcat/Km was 1.31e+06 ± 470000 M⁻¹ s⁻¹.

B4: PhaB1 (Cupriavidus necator H16; Y185F) (protein)
chain: MTQRIAYVTGGMGGIGTAICQRLAKDGFRVVAGCGPNSPRREKWLEQQKALGFDFIASEGNVADWDSTKTAFDKVKSEVGEVDVLINNAGITRDVVFRKMTRADWDAVIDTNLTSLFNVTKQVIDGMADRGWGRIVNISSVNGQKGQFGQTNYSTAKAGLHGFTMALAQEVATKGVTVNTVSPGFIATDMVKAIRQDVLDKIVATIPVKRLGLPEEIASICAWLSSEESGFSTGADFSLNGGLHMG
B4: the Km came out at 86.2 ± 20.6 µM, the Vmax came to 127 µmol/min/mg, the kcat stood at 55.8 ± 7.6 s⁻¹ and the kcat/Km was found to be 650000 ± 180000 M⁻¹ s⁻¹.
